Tests used:
[1] = target: GST-ABI-1Δ (N-terminal GST fusion to the product of the abi-1(tm494) allele) (C. elegans) (UniProt Q10929); assay: pull-down; GST, GST-ABI or GST-ABIΔ on glutathione beads incubated with 25 μl of a 100 μl 35S-labelled in vitro transcription/translation reaction; 2 h at 4 °C in PBB2 (25 mM HEPES pH 7.6, 150 mM NaCl, 5 mM MgCl2, 0.1 mM EDTA, 0.1% Tween-20, 0.25% BSA); washes with 300 and 250 mM NaCl; SDS-PAGE, autoradiography, phosphorimager quantitation
[2] = target: T1, GST-ABI-1 (glutathione-S-transferase fused to the N terminus of full-length C. elegans ABI-1) (C. elegans, UniProt Q10929 1-469); assay: as above; settings: one partner purified
T1 construct: ABI-1, C. elegans homolog of the Abi proteins; full-length abi-1 from cDNA yk1204a12, bp 47-1,456; Cloned in pDEST15 (Gateway). bp 47-1,456 is 1,410 bp, i.e. 469 codons and a stop if the stop codon is included; not shown: GST, N-terminal, kept
T1 sequence (looked up): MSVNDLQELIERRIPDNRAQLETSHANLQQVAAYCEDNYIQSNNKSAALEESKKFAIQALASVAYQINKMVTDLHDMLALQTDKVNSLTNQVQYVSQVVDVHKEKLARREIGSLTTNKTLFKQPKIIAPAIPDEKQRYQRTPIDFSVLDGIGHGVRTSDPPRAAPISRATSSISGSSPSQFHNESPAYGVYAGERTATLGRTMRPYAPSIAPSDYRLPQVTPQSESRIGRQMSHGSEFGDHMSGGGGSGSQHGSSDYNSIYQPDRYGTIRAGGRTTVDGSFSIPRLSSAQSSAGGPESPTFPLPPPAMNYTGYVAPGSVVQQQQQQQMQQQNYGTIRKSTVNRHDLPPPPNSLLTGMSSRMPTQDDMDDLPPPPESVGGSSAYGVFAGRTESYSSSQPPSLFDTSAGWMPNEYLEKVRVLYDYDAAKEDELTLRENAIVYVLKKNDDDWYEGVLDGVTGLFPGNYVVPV

- fold less ABL-1(112–611) bound than by ABI-1 [1]: 3 fold
- fold binding in the ABI-1 lane over the GST lane (phosphorimager) [2]: 8 fold
B1: ABL-1(112–611), N-terminal fragment of C. elegans ABL-1 (domain or fragment, UniProt P03949 112-611, looked up)
chain: SSSSSAPLFVALYDFHGVGEEQLSLRKGDQVRILGYNKNNEWCEARLYSTRKNDASNQRRLGEIGWVPSNFIAPYNSLDKYTWYHGKISRSDSEAILGSGITGSFLVRESETSIGQYTISVRHDGRVFHYRINVDNTEKMFITQEVKFRTLGELVHHHSVHADGLICLLMYPASKKDKGRGLFSLSPNAPDEWELDRSEIIMHNKLGGGQYGDVYEGYWKRHDCTIAVKALKEDAMPLHEFLAEAAIMKDLHHKNLVRLLGVCTHEAPFYIITEFMCNGNLLEYLRRTDKSLLPPIILVQMASQIASGMSYLEARHFIHRDLAARNCLVSEHNIVKIADFGLARFMKEDTYTAHAGAKFPIKWTAPEGLAFNTFSSKSDVWAFGVLLWEIATYGMAPYPGVELSNVYGLLENGFRMDGPQGCPPSVYRLMLQCWNWSPSDRPRFRDIHFNLENLISSNSLNDEVQKQLKKNNDKKLESDKRRSNVRERSDSKSRHSSHHD
modifications: labeled with 35S in vitro
notes: contains the SH3, SH2 and tyrosine kinase domains; Cloned in pDEST14 (Gateway) for expression in vitro; also called N-terminal half of ABL-1; source: in vitro translated (TNT T7 Quick Coupled Transcription/Translation system, Promega)

From PMC2672617, “Abl Kinase Inhibits the Engulfment of Apopotic Cells in Caenorhabditis elegans” (PLoS Biology, 2009)
